doi:10.1101/2021.09.12.459968 (bioRxiv, 2021)
One block for each binder: values may come before it.

Tests used:
[1] = biological target: full-length mouse NLRP3 (FLAG-mScarlet tag removed), double ring cage (mouse, UniProt Q8R4B8 1-1033); assay: co-sedimentation
[2] = biological target: the molecule itself; assay: negative-staining electron microscopy

binding result [1]: binds
B1: recombinant full-length mouse NEK7 (enzyme)
chain: not shown

B2: mouse NLRP3 LRRm6 (K970E_Q1001R_F1029A) (natural protein)
chain: MTSVRCKLAQYLEDLEDVDLKKFKMHLEDYPPEKGCIPVPRGQMEKADHLDLATLMIDFNGEEKAWAMAVWIFAAINRRDLWEKAKKDQPEWNDTCTSHSSMVCQEDSLEEEWMGLLGYLSRISICKKKKDYCKMYRRHVRSRFYSIKDRNARLGESVDLNSRYTQLQLVKEHPSKQEREHELLTIGRTKMRDSPMSSLKLELLFEPEDGHSEPVHTVVFQGAAGIGKTILARKIMLDWALGKLFKDKFDYLFFIHCREVSLRTPRSLADLIVSCWPDPNPPVCKILRKPSRILFLMDGFDELQGAFDEHIGEVCTDWQKAVRGDILLSSLIRKKLLPKASLLITTRPVALEKLQHLLDHPRHVEILGFSEAKRKEYFFKYFSNELQAREAFRLIQENEVLFTMCFIPLVCWIVCTGLKQQMETGKSLAQTSKTTTAVYVFFLSSLLQSRGGIEEHLFSDYLQGLCSLAADGIWNQKILFEECDLRKHGLQKTDVSAFLRMNVFQKEVDCERFYSFSHMTFQEFFAAMYYLLEEEAEGETVRKGPGGCSDLLNRDVKVLLENYGKFEKGYLIFVVRFLFGLVNQERTSYLEKKLSCKISQQVRLELLKWIEVKAKAKKLQWQPSQLELFYCLYEMQEEDFVQSAMDHFPKIEINLSTRMDHVVSSFCIKNCHRVKTLSLGFFHNSPKEEEEERRGGRPLDQVQCVFPDTHVACSSRLVNCCLTSSFCRGLFSSLSTNRSLTELDLSDNTLGDPGMRVLCEALQHPGCNIQRLWLGRCGLSHQCCFDISSVLSSSQKLVELDLSDNALGDFGIRLLCVGLKHLLCNLQKLWLVSCCLTSACCQDLALVLSSNHSLTRLYIGENALGDSGVQVLCEKMKDPQCNLQKLGLVNSGLTSICCSALTSVLKTNQNFTHLYLRSNALGDTGLRLLCEGLLHPDCKLQMLELDNCSLTSHSCWNLSTILTHNHSLRELNLGNNDLGDLCVVTLCEVLKQQGCLLQSLRLGEMYLNRETKRALEALQEEKPELTIVAEISW
binding result [2]: binds
